The data set is described as follows: label from the status in PepcDB records.

Take “MFALISKINPGAWWLIFAIATDVLSTFYSAKGNGLVNKTAQGIALVLYIISFACAAIALKYMQAGILYVLWSGVGVLATAFLAKIFLGQNIDVAGWIGIGFITVGLMIIAQYY”: the protein production result is given as “failed”.
To “MFALPQAGDRRGEIIKVLLSNGWDYMNGLLTLGKVGEPQIPTPEVLTKILVELGPFYIKLGQLLSTRPDLLPPRYINALTALQSNVPPLPWSAIEDLLQREFPQPLGETFQEIESEPIAAGSIGQIHRAVLQSGETVAIKVKRPGIDVIVEQDSLLIKDVAELLALTEFGQNYDIVKLADEFTQTVKAELNFDTEAAYTNNLRTNLAKTTWFDPNQLVIPKVYWELTNQKFLVLEWLDGVPILTADLTQPPSDKDIAEKKKEITTLLFRAFFQQLYVDGFFHADPHPGNIFYLADGRLALIDCGMVGRLDPRTRQLLTEMLLAIVDLDAKRCAQLTVELSESVGRVNFQRLEVDYERMLRKYYDLSLSEFNFSEVVYEFLRIARVNKLKVPACLGLYAKCLANLEGAG” belongs “failed”.
As for “MFAQLVMGPAGSGKSTYCHALQQHGEIVGQLVHVVNLDPAAERFEYKPVADIRDLITVTDVAEELSLGPNGSLVYCMEYLLEDQDWLEQVLSETAEDDYLVFDMPGQIELYTHFECVRQFVYVLQSQFSMRVCSIFLLDAQFLADASKFFAGSLTAMAAMLHLGLPHLNVLSKADLLRHRIEHRDNTLEPLSSDAEAPNSDEALDEFLERFLNPDIQSLVSELSEQMDTRYRALNERIGALLEDYAIVQFVPYSATDEDSIGELLLRANLLLQYDDDRDVRIHPELD”, the protein production result is “failed”.
To “MFASLVIPVSAQANSGEMPQEQQLAVKYMDALTEHDYKTLITFYNRDSIFFDKTANRKYTGGRFIIDFLERAHQGVLEYDFNIEHMYNAGSLVVMIGNYHFKGPGEQFGKPGKIIDVAIPAVTSLKLDMLNRRVTEHVDLIDYQTMSDQLAMQ” belongs “not failed”; to “MFCTLAGYRWLNSGSLLRRLSQRAVRRLPTAPLCHLHNGATESAASNGALRIVDEKVAYRRYATVFERTVQYPDGRHVTYDILGQPAVQSASVLVFPFDTQSKTCYVIREYCPGPNRVLYGFPAGMVETKHESLEAAARAELSEEAHLRCAQLIDLTAQAAVWERSFEVPNTASDAENCLRGFFADKYSRNVCKMYLALNPEPDGHPGSMDAEELIEQVGAVRVPQLEAWLWSGQMTMPHMLLAMCALTYLRQRGMLT”, “failed”; to “MFDRLKNGEKIAPIVKEVESQITEVHKRADEVIESNQFRVLESFGKHKISDSHFIPTTGYGYDDIGRDTLEKVYADVFGAEAGLVRPQIISGTHAISTALFGILRPGDELLYITGKPYDTLEEIVGVRGKGVGSFKEYNIGYNAVPLTEGGLVDFEAVAAAIHSNTKMIGIQRSKGYATRPSFTISQIKEMIAFVKEIKPDVVVFVDNCYGEFIEEQEPCHVGADLMAGSLIKNPGGGIVKTGGYIVGKEQYVEACAYRLTSPGIGAEAGASLYSLQEMYQGFFLAPHVAGQALKGAIFTAAFLEKLGMNTSPAWNAPRTDLIQSVQFDDKDRMIAFCQAIQYASPINSHFTPYANYMPGYEDDVIMAAGTFIQGASIELSADGPIRPPYVAYVQGGLTYSHVKIAICSAIDELIEKNLLTISLEHHHHHH”, “not failed”.
As for “MFEASTFLLFMGSAIMLIIIPGPDLVFTITQGMTNGRKAGVITAMGLSLGNIVHTLAAVLGLSLIIQTSVVVFTIFKLAGAMYLFYLAYKALKHRKEEIRVNSEKTNDLKGLFLRGLIMNVLNPKVAIFYLTFLPQFVNYQSANISLQLCILGLIFIIMTAIIFSIFGYFSGTFRDRLLKNSRFNEYMNIAATIIFIGLGLKLMTTQL”, the protein production entry is recorded as “failed”.
To “MFEGERHMFDVQREELIWGDRKLVLETGKTARQADGSVVATYGETTVLATVVAGKEPKAGIDFLPLTVNYQERAYAAGRIPGGYFKREGRPSEKETLVSRLIDRPIRPLFVEGWRNDTQVVVTVLSHDLENDPDIVAMVAASAALTLSGVPFMGPIGAARVGYLNGGYKLNPLVTEIAESTLDLVVAGTQDAVLMVESEAKELSEDVMLGAVMFGHKHFQPVIEAIIRLAEKAAKEPRDFTPPENADVEAAVLAVAETELREAYKKTVKQERYAAVDAVKAKVVAALCPAEGEQKFSPEKVKAAFKEAQSKVVRWNILDTGSRIDGRDVKTVRSIVSEVGVLPRAHGSSLFTRGETQALVVATLGTGEDEQFIDALEGTYKERFLLHYNFPPYSVGETGRMGSPGRREIGHGKLAWRAIRPVLPPAHEFPYTIRVVSEITESNGSSSMASVCGGSLSLMDAGVPLRRPVAGIAMGLILEGERFAVLSDILGDEDHLGDMDFKVAGSEEGITSLQMDIKIAGITEEIMKIALAQAKDGRAHILGEMSKALTAARPELGEYAPRIETMQIPTDKIRDVIGTGGKIIREIVEKTGAKINIEDTGIVKIASSDGKAIKAAYNWIRSIVAEPEAGTIYDGTIVKIMEFGAFVNFFGAKDGLVHISELAAQRVAKVGDVVKEGQKVKVKFLGADERGKIRLSMKVVDQETGEDLTEKLKAERAERGEPEREERSDRGDRGDRGPRRDRGERRRESSGE” belongs “failed”; to “MFEKQFNHRTLETSLGPVEIEGPVTSQILATYKLDPGLTAFRQPAEQHEALVEIAALEEGRIIIARQGNDIIGYVTFLYPDPYETWSEGNNPYILELGAIEVAARFRGQQIGKKLLEVSMLDPAMEHYLILTTEYYWHWDLKGSGLSVWDYRKIMEKMMNHGGLVFFPTDDPEIASHPANCLMARIGKHVAPEVVAHFDALRLRRRFMYD”, “not failed”.
Take “MFESAEVGHSIDKDTYEKAVIELREALLEAQFELKQQARFPVIILINGIEGAGKGETVKLLNEWMDPRLIEVQSFLRPSDEELERPPQWRFWRRLPPKGRTGIFFGNWYSQMLYARVEGHIKEAKLDQAIDAAERFERMLCDEGALLFKFWFHLSKKQLKERLKALEKDPQHSWKLSPLDWKQSEVYDRFVHYGERVLRRTSRDYAPWYVVEGADERYRALTVGRILLEGLQAALATKERAKRQPHAAPLVSSLDNRGLLDSLDLGQYLDKDAYKEQLAAEQARLAGLIRDKRFRQHSLVAVFEGNDAAGKGGAIRRVTDALDPRQYHIVPIAAPTEEERAQPYLWRFWRHIPARRQFTIFDRSWYGRVLVERIEGFCAPADWLRAYGEINDFEEQLSEYGIIVVKFWLAIDKQTQMERFKEREKTPYKRYKITEEDWRNRDKWDQYVDAVGDMVDRTSTEIAPWTLVEANDKRFARVKVLRTINDAIEAAYKKDK”: the protein production result was “not failed”.
On to “MFGFFSPAPAIPRLPKDKVSSAYKAYRIRMFLMIFIGYTGYYLVRKNFAVASPYLIDNYGFSKTQIGLISMGLAVSYGLSKFILGNLSDKSNVKKFICFGLIASSVLSVLMGFARTVPIFLILMVFNGFFQGMGAPPCSIVLGKWFSQKERGLKMGIWNTSHNIGGGLIAPIATLCLLVFGQNHFQSIFFVPAIICTIVALFCYVIGADTPASVGLPPVEEYRNDYPEVKAEVNPTTLSSKEIMVKYVLKNKYVWYLALANIFVYLIRQGVVNWIPIYLKESKGFSAANANWAMFLFEYAAIPASILLGWLSDVVFKGKRAPLSILCMIGVIFATVAYWQTSSTLVTMISVAFIGCFIYGPQLLIGMNLIDVVPNFAVGSATGFSGLCGYLLGEFMADFVLGMIADSFGWNGAFIFIIVGAFIALLLLALTLKIKKNPQVEDKIA”, for which the protein production entry was “failed”.
Under “MFGGAKGGHFGVPPAGYSGAVPQSEAGTKAGPAGGRPADTMWRVRCKAKGGTHLLQGLSSRTRLRELQGQIAAITGIAPGSQRILVGYPPECLDLSDRDITLGDLPIQSGDMLIVEEDQTRPKASPAFSKYGAPSYVREALPVLTRTAVPADNSCLFTSVYYVVEGGVLNPACAPEMRRLIAQIVASDPVLYSEAILGKTNEDYCDWIRRDDTWGGAIEISILSKFYQCEICVVDTQTVRIDRFGEDAGYTKRVLLIYDGIHYDPLQRNFPDPDTPPLTIFSSNDDIVLVQALELADEARRKRQFTDVNRFTLRCMICQKGLTGQAEARDHARETGHTNFGEV” stands “failed”; under “MFGRCVRVKENMTYTEFVRTLSEAFSLKSTEINPIISYWMPGEMLVMIDTKRLPVYIDSQVGLNTFFMIRGRYPSLNLFVSFITTVKTLENNVSRTHGDDAESDRVSNVDENNEAVDEQDDVEDDKTDEDEEEGDNEDGDGYDDYQGDDGSMGGSTLDPTIDGSESNGEDYDYNKWNDVIVEEYGIGNVEENVILIPGEFSRLLAECTYTS”, “failed”; under “MFGRDGRLKESRVQKPERQQRLFGLSTPLRSAVIPPLSAARWLLVLIVAAGVYFFHGFLFPVLAALVIAFASWPLYQRLLAGVGGNRTIAATLAILFILAFLVIPIALAGTYAINEVREWVGWAIETNRHGAVTPHWIATMPVVGDWLNEQWTTNFGHPGGIGELIQLISGANIGSIYRGALAAGGSAFGLLLTLLFMMIALFFAYRDGEHFAGQVDRLGERILPTRWERISRVVPATISSTVTGMTVIAIGEGLVLGIAYWLAGVPSPVTLGALTGVMALIPGGAPLSFTLVSIYLAASGSPMAGLALFLWGAVELFIVDKTLRPKLVGGPIKLPFLPTFFGLIGGVKTMGFLGLFIGPVLMALLVAIWREWLREVELVDELAAGSAAEIEATPQIEVLPEPGVAKKARA”, “failed”.
Regarding “MFHAAFMEERVFSDRGSMRNACSSIEYDGCRQGQSGPLLEEKEVKRKLFGALALVAMLAAPALAEAATRGFATANVNMRSGPSTAYPAVVVIPVGAPLTVHGCLSDTPWCDVSFVNGRGWVAGRYIQTTFRQNRVYVEPRYYRDLGVPVITFEAGRYWDRYYRDRDFYRERDRWRRPPPSGGYWNAPPPSAGWDRPRPRDDWRDGRRDDGRRDEWRDPRQGGPNDGRWERRYGDWNQGDRNQDRPRRDDDRRRWEDENRDRNRDRDSNRDGNRDRPQNQYDGQRGQLEGQPRPPAPAPDAPLQGCIIGSPGCAQRLEHHHHHH”, the protein production result is recorded as “not failed”.
Under “MFHKALWMRQWKQGKYIILLFWLTSLYQLPYKYYQEAQTQLKLSKMKFGDYTYYYSYYFQTSDGAVFFQGATLIALACLLIGWERNNQSNDFLFSMPFKRKDIFLTKWWLGVLNIITVQIICLISMYGIKNMSFHNEYQTFAPFYSYFLYATVVLIAIYTFALFIGTITGHIFSQSILTIILLFLPYGFGLLISGFIYSHTQWSVDAMGEIEYHTHEYLQHIGIISPLEYFSITYDYHPIETFDDYGNKLPSVSQDNPTERISVPSPWTLLTPFSYIITFLSIATFLYTRTPNEQSGKILLFPNLQKWFIICTVLCFGLLGGRILGGRDALLSYYVGFFLFATISYFIFTRLLKLKFAFAGK” stands “failed”; under “MFHLIRWQDIADIIIMSFLAYRLYSWFRHTRAMQVLIGLGILAGVYFVTRNLGLFMTSWILQELGTVLFVLIIVVFQAEIRQALYRFSLLRTFIGRQEGGGELDLAELGRTVFGLARERTGALIVLQRQEALDDYLLHGVKVDGLPSSHLLGSIFRNGTPLHDGAVIIKDGRVSQASCHLPLSMKTELPQNFGTRHRAGIGLSERSDAVVIIVSEERGEVGMALAGEYRKIASPEEFAEVIQGLLYPQRPENVAFTLRQRLLRNLVPKIVTTLIVIAGWLVVTTKEGGIFTVTVPIKFHNLPPRSVLVKSVPESVEVQLKVFTSLIPSPRQLDLVADLNLAGVHDGVNSLAVKDDDLNLPLGVVVTGINPPMVKVTIAGKERKQLRVRPKLTGQLPGRAKLRSVTADPDTVVVEGPGHLLEGLESLPTETVDLAGLRRGGVVERRVVSPSPQIRVLRDEPVRVVVVTSVK”, “failed”; under “MFIASFITGPFQTNCYLLAREQGSECVIVDLGMGAEEFLGDALRTHHLVPVAIAVTHGHIDHIGSARQVGDEYGIPVLCPRDDRHLLSDPMAGLSDFARPLIEQWYGSTTLREPEQVVDVEPFSHHQFANLDLEFLHAPGHTPGCSMIRTIDAEFGPIVMSGDVVFAGSIGRTDMPGGDPAQMSYSLSDVVWSLDDSTHVLPGHGGPTTMANERLTNPFLGRR”, “failed”.

The record behind these values is a protein production outcome set (Wang et al. 2014).
